From patent publication US20060222661A1

Target: human CD81 (on Huh-7 cells and human primary hepatocytes) (human) (UniProt P60033)
Experiment: cell-based or functional assay

Sequence of human CD81 (on Huh-7 cells and human primary hepatocytes) (human) (P60033 whole entry): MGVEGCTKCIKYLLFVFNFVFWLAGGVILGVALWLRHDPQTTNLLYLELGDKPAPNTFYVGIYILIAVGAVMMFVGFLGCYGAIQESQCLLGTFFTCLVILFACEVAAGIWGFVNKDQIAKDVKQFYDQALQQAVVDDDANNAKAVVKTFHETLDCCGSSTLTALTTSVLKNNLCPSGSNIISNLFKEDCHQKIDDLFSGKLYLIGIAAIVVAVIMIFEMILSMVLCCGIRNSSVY

## JS-81 anti-CD81 monoclonal antibody (Pharmingen)
  inhibition of infection by HCVpp of genotypes 1a and 1b, target cells pre-incubated with 30 µg/ml antibody: > 90%
